Measurements published in US20240245805A1 (Orna Therapeutics, Inc., priority 2020, published 2024).

Test system: HEK293 cells
Format: cell-based, human
Conditions: circular RNA encoding Gluc with the listed IRES (UTR truncated to 675 nt) transfected into HEK293 cells; supernatant after 24 hours

Molecule	Expression (luminescence from secreted Gluc protein)
Pegivirus I (nucleic acid, lipid formulation; Pegivirus I) DNA: AGAATGGTCTAAGTGGTTGCCACCGTGGTCCGAAGGGGAGGAGGACCTACGCTGCCAGGGTTGGCAGGTCGTAAATCCCGGGTGTAGGAGATCCCTCCTTGTTAGGACTGCTGGTAGCTGGGGGGTCGGTGACCCCCTGGGCAACCGCCAAACCCGGACGACCGGGTGGCGGCTCCATGTTGGCACGGTCCACAGGTGTGAACCCTACCGGTGTGAATAAGGGTTGGTGGTTGCGGTCCACCTTAAACGTAGTATGCATTGGGCTTGGTAAAACACCGCTCGTAGTACGGAACGCCGCCTTTAAAGACACAGTAGGCGTAGCCGGCGGGTTGACAATCCATACGGGGGGTGGGGTGTGGTCATGGATCTGTCCACACCACCTTCATGCGGCCCTCTAAGCAAGCCATACCGGGGGGAGGCGCGCGGCACCGCACTGCCGGGCAAGGGGAAGAACCTTCGGGTGACCCCCCCCCAACCACCGTCCGATCAATGCTAATGTTGCGTTTAGGCGTGACACCGGCACA	8.02E+04
18-675 (nucleic acid, source: /note="Description of Unknown: 18-675 sequence") DNA: CCCACAGCAAGAATGCCATCATCTGTCCTCACCCCCAATTTTCCCTTTTCTTCCCCTGCAACCATTACGCTTACTCGCATGTGCATTGAGTGGTGCATGTGTTGAACAAACAGCTACACTCACATGGGGGCGGGTTTTCCCGCCCTACGGCCTCTCGCGAGGCCCACCCCTTCCCTCCCCTTATAACTACAGTGCTTTGGTAGGTAAGCATCCTGATCCCCCGCGGAAGCTGCTCACGTGGCAACTGTGGGGACCCAGACAGGTTATCAAAGGCACCCGGTCTTTCCGCCTTCAGGAGTATCCCTACTAGTGAATTCTAGCGGGGCTCTGCTTGGTGCCAACCTCCCCCAAATGCGCGCTGCGGGAGTGCTCTTCCCCAACTCACCCTAGTATCCTCTCATGTGTGTGCTTGGTCAGCATATCTGAGACGATGTTCCGCTGTCCCAGACCAGTCCAGTAATGGACGGGCCAGTGCGTGTAGTCGTCTTCCGGCTTGTCCGGGGCATGTTTGGTGAACCGGTGGGGTAAGGTTGGTGTGCCCAACGCCCGTACTTTGGTGACACCTCAAGACCACCCAGGAATGCCAGGGAGGTACCCCACCTCACGGTGGGATCTGACCCTGGGCTAATTGTCTACGGTGGTTCTTCTTGCTTCCACTTCTTTCTTCTGTTCACG	6.04E+07
Human pegivirus isolate JD2B1I (nucleic acid, listed as Pegivirus sp.) DNA: TCAGGGTTGGTAGGTCGTAAATCCCGGTCACCTTGGTAGCCACTATAGGTGGGTCTTAAGAGAAGGTTAAGATTCCTCTTGTGCCTGCGGCGAGACCGCGCACGGTCCACAGGTGTTGGCCCTACCGGTGGGAATAAGGGCCCGACGTCAGGCTCGTCGTTAAACCGAGCCCGTCACCCACCTGGGCAAACGACGCCCACGTACGGTCCACGTCGCCCTTCA	6.85E+05
Porcine Kobuvirus GS2 (nucleic acid, listed as Kobuvirus sp., lipid formulation) DNA: TTTGAAAAGGGGGTGGGGGGGCCTCGGCCCCCTCACCCTCTTTTCCGGTGGCCATTCGCCCGGGCCACCGTTACTCCACTCCACTCCTTCGGGACTGGTTTGGAGGAACACAACAGGGCTTCCCATCCCTGTTTACCCTTTATTCCATCATCCTTTCCCCAAGTTTACCCTATCCACACCCCACTGACTGACTCCTTTGGATTTTGACCTCAGAATGCCTATTTGACCTCCCACTCGCCTCTCCCTTTTCGGATTGCCGGTGGTGCCTGGCGGAAAAAGCACAAGTGTGTTGCAGGCTACCAAACTCCTACCCGACAAAGGTGCGTGTCCGCGTGCTGAGTAATGGGATAGGAGATGCCTACAACAGGCTCGCCCATGAGTAGAGCATGGACTGCGGTGCATGTGACTTCGGTCACCACGGGCATAGCATTGCTCACCCGTGAATCAAGTCATCGAGATTTCTCTGACCTCTGAAGTGCACTGTGGTTGCGTGGCTGGGAATCCACGCTTGACCATGTACTGCTTGATAGAGTCGCGGCTGGCCGACTCATGGGTTAAAGTCAGTTGACAAGACAC	44200000
Simian pegivirus (nucleic acid, listed as Pegivirus sp., lipid formulation) DNA: GGGGAATCTCACCCCCCGTCCGGTTCCGGAAGAATCGGAAACCGACACCCTGACCAATCATTCTTGATCATAGAGTGGATGTTAGTGAAAGCCAGACGAAAGCCGGCGGATGGGTGGTGACAGGGTTGGTAGGTCGTAAATCCCGGCCACCCTGGTACCCGGTATAAGTTGGGCGGAAGCTGACTGAAGCTCCGTGCTCTTTTCTGTGCGTTCTTGGTGCACGGTCCACAGGTGACGCCTATACCGGTGTGAATAATAGGCCGACTCGAGCGGAGTCGTTAAACTGAGAACCTCCATACGGATGGCAACTTGGCTTGCGTACGGGGACGCCGCTAAAGTCACAGTGGGTTAAGTCCGGCGGGTTGACAACCCCAGCAAGGCGAGGGGGTCCTATTGTTGGACTCTGCCAGTTCCCGGTGGAGGTAGGCATGGGGTGGCCCAGCTCCGCGGCGCGCTACAGCCGGGGTAGCCCAAAATCCGAAAGGTGAGGGCGGGCCACATGTCCGAAATTTAGTCAAGC	8.56E+04
A73-675 (nucleic acid, source: /note="Description of Unknown: A73-675 sequence") DNA: TTACTCCATTCAGCTTCTTCGGAACCTGTTCGGAGGAATTAAACGGGCACCCATACTCCCCCCACCCCCCTTTTGTAACTAAGTATGTGTGCTCGTGATCTTGACTCCCACGGAACGGACCGATCCGTTGGTGAACAAACAGCTAGGTCCACATCCTCCCTTCCCCTGGGAGGGCCCCCGCCCTCCCACATCCTCCCCCCAGCCTGACGTATCACAGGCTGTGTGAAGCCCCCGCGAAAGCTGCTCACGTGGCAATTGTGGGTCCCCCCTTCATCAAGACACCAGGTCTTTCCTCCTTAAGGCTAGCCCCGGCGTGTGAATTCACGTTGGGCAACTAGTGGTGTCACTGTGCGCTCCCAATCTCGGCCGCGGAGTGCTGTTCCCCAAGCCAAACCCCTGGCCCTTCACTATGTGCCTGGCAAGCATATCTGAGAAGGTGTTCCGCTGTGGCTGCCAACCTGGTGACAGGTGCCCCAGTGTGCGTAACCTTCTTCCGTCTCCGGACGGTAGTGATTGGTTAAGATTTGGTGTAAGGTTCATGTGCCAACGCCCTGTGCGGGATGAAACCTCTACTGCCCTAGGAATGCCAGGCAGGTACCCCACCTCCGGGTGGGATCTGAGCCTGGGCTAATTGTCTACGGGTAGTTTCATTTCCAATCCTTTTATGTCGGAGTC	1.30E+08
Tropivirus A (nucleic acid, Tropivirus A) DNA: TGTCGCATGTTGCCAACATCAAAATTCTGGGAGAGTCGCGAACTCCTTAACACTGCCTTGCCTCGACGGAGCCGTTGTTATAGTGTCGACGGGATACAAACATTAAACTAAACCCACTTGCCTCGACGGAACCCCTTACCTTTTATTTTATTTTATAGTATGAAAGTGAATCTTGTATGAATGTTCATAGAAAACTGCAAATGAGTACCACGTCTAACATGAGAGAATGATACTGGAGAAATCCAAGTTTAGAAGTCACTACGAATCCCAGCGGAAACAAGGGAATTCTGAGCTTCTAATAGGCGTTTAAGACTATTTGCAAAATTCTGGTGCGTAAGTGATATTTTCATTGCGTAGAACGCTGGTAACCACTCCGGCTAGTATAAGCATTGTTAGTCACTTATTATGAAACTCCACACTATCCTTTCTGGAGAAGCACACAAACTTACATGGTAAAGCTAGACCATTATCTTAAGCGGTGAGTACACTGCAACCTTGTAACAATGCTTGTATGACTACTTTTTGTATATCTTGAGCAATATTGTTGAGGTGGACATGTCCAAAGGTAATGTTGTTGGGAATGGAGGGGTCCATTTTCCCGTGCACGTAGTGTACTAGTATTGGGTGATAGCCTTGCGGCGGATCAACCATGTATTTTAATCCGTTGACTTTCAC	9.52E+04
Aichivirus Rt386 (nucleic acid, listed as Aichivirus sp.) DNA: ACTCCATTCAGCTTCTTCGGAACCTGTTCGGAGGAATTAAACGGGCACCCACTTTCCTGTCCTCTCCCCCTTTCTGCAACTCAAGTGTGTGCTCGTAATCCTGACTCCCACGGGTTGACCGCCCCGTTGGTGAACAAACAGCTAGGTCATTCCCTCCCTACCCCTGGGCGCCATTTCAGTGGCGTTCATATCCTCCCCCCAGCCTGACGTGTCACAGGCTGTGCAAAGTCCCCGCGAAAGCTGCTCACGTGGCAATTGTGGGTCCCCCCTTTGTGAAGGAACCGAGTCTTTCTCCCTTAAGGCTAGACCCCTGTGTGAACTCACAGGTGGCAACTAGTGGTTCCACTGCATGCTCCCGACCTCGGCCGCGGAGTGCTGTTCCCCAAGTCGTGACACTGACCTCCACTTATGTGCCTGGCAAGCATATCTGAGAAGATGTTCCGCTGTGGCTGCCAAACCTGGTAACAGGTGCCCCAGTGCGTGTAGTCTTCTTCCGTCTCCGGACGGTAAGTGTGTGGTAAAGATGCGGCGTAAGGTTCAAGTGCCAACGCCCTGGAAGGGATGACCCTTCTACTGCCCTAGGAATGCCGCGCAGGTACCCCAGGTTCGCCTGGGATCTGAGCGCGGGCTAATTGTCTACGGGTAGTTTCATTTCCCTCTCTTTTCACTGGCATC	5.71E+07
Symapivirus A (nucleic acid, Symapivirus A) DNA: TTGGGAAATCCCCAATGCTTCTTTCAACACCGCCTGACTATGCGGTGGCGCTTCGGCTCAAACAACTAGTCACTTCCCCCTCTTAACTACTACCCAAGACTTCTAACTACCCTTACCTACTTATTTGTCTAAATTTCAAACTTTTATTCTCACGCGTCTTATAAACATCTTTTCTATTTGTTATGGTATGTTTTGTGATTTGTGTGGTGTATTTCATTTAATGGGATCTAGTGGACCGTGCCCCGGTTGGGTATCCGCTCCCTTTAAATGTTTGCAAGCACTCTTGACATTATAACCTATCATTTAGTTTACTTGTTTGTATGATCGTATTTCTGAATCGTAACATTTATGCAATTCTTTCTCGCCGAGACTTGTCTAGGAGATAAAGTTCCTGCATATTTAGTGTTACGGTTGTATAATGGAGACTTAGATAGCTTCACACTGAGGACGCTTTTTCGCTATCCTTTTGACCTGATTCAGGCCAGTGTGGAGTTAATGATTGTATGGATGGGCCCTACAATTTGTCTAAGACTTGGTGATAGCCTCGCGGCCGCTCGCCATTTATACAACTGAATAGCGGTTGAAACTCTCT	1.27E+05
